Changes are numbered by the printed parent chain.
B1: KaiB (natural protein, Synechococcus elongatus PCC 7942, UniProt Q79PF5 1-102, looked up)
chain: MSPRKTYILKLYVAGNTPNSVRALKTLKNILEVEFQGVYALKVIDVLKNPQLAEEDKILATPTLAKVLPLPVRRIIGDLSDREKVLIGLDLLYGELQDSDDF
notes: KaiB, circadian clock protein of Synechococcus elongatus PCC 7942; printed mass of KaiB 14 kDa; Six KaiB protomers stand in the complex with the KaiC hexamer; also called h-KaiB; source: Escherichia coli, Strep-tagged recombinant protein, purified
B2: KaiCDT (KaiC phospho-mimicking mutant with aspartate at Ser431) (natural protein, Synechococcus elongatus PCC 7942, UniProt Q79PF4 1-519, looked up)
chain: MTSAEMTSPNNNSEHQAIAKMRTMIEGFDDISHGGLPIGRSTLVSGTSGTGKTLFSIQFLYNGIIEFDEPGVFVTFEETPQDIIKNARSFGWDLAKLVDEGKLFILDASPDPEGQEVVGGFDLSALIERINYAIQKYRARRVSIDSVTSVFQQYDASSVVRRELFRLVARLKQIGATTVMTTERIEEYGPIARYGVEEFVSDNVVILRNVLEGERRRRTLEILKLRGTSHMKGEYPFTITDHGINIFPLGAMRLTQRSSNVRVSSGVVRLDEMCGGGFFKDSIILATGATGTGKTLLVSRFVENACANKERAILFAYEESRAQLLRNAYSWGMDFEEMERQNLLKIVCAYPESAGLEDHLQIIKSEINDFKPARIAIDSLSALARGVSNNAFRQFVIGVTGYAKQEEITGLFTNTSDQFMGAHSITDSHIDTITDTIILLQYVEIRGEMSRAINVFKMRGSWHDKAIREFMISDKGPDIKDSFRNFERIISGSPTRITVDEKSELSRIVRGVQEKGPES
notes: KaiC, circadian clock protein of Synechococcus elongatus PCC 7942, mono-phosphorylation mimic at Ser431; 72d-KaiCDT is the same protein, 72.2% deuterated, used in iCM-SANS; Printed mass of KaiC 65 kDa; also called h-KaiCDT; 72d-KaiCDT

What was measured:
wild-type KaiC = molecular target: T1, wild-type KaiC (Synechococcus elongatus PCC 7942, UniProt Q79PF4 1-519); assay: native gel or EMSA; BN-PAGE (NativePAGE Novex Bis-Tris gel); KaiC variants incubated with KaiB at 30 °C for 12 h; settings: both partners purified
T1 construct: KaiC, circadian clock protein of Synechococcus elongatus PCC 7942; also called KaiCWT; source: Escherichia coli, Strep-tagged recombinant protein, purified
T1 sequence (looked up): B2 chain with D431S

[1] = molecular target: T2, KaiCDE (KaiC mutant with aspartate and glutamate residues at positions 431 and 432) (Synechococcus elongatus PCC 7942, UniProt Q79PF4 1-519, aspartate at position 431 | glutamate at position 432); assay: as above; settings: both partners purified
T2 construct: KaiC, circadian clock protein of Synechococcus elongatus PCC 7942, mimic of hyperphosphorylated KaiC; source: Escherichia coli, Strep-tagged recombinant protein, purified
T2 sequence (looked up): B2 chain with T432E

[2] = molecular target: B2; assay: native MS; nanoflow ESI-MS under non-denaturing conditions; 20 uM KaiCDT mixed with 3.3, 10, 20 and 30 uM KaiB (monomer), 30 °C for 4 h, exchanged into 150 mM ammonium acetate pH 7.5; settings: both partners purified
[3] = molecular target: the molecule itself; assay: as above

Binder | binding result (wild-type KaiC) | binding result [1] | stoichiometry N [2] | stoichiometry N [3]
B1 | binds | binds | 6 KaiB protomers per KaiC hexamer | –
B2 | – | – | – | 6

— article PMC5067715, “Structural characterization of the circadian clock protein complex composed of KaiB and KaiC by inverse contrast-matching small-angle neutron scattering” (Scientific Reports, 2016)
